Paper PMC5261807 (2017)
Non-standard residues stand in square brackets, D forms with d. Primed or numbered codes have the meaning given here. No end group written: not given here. Me2s″ = symmetric dimethylarginine (Rme2s); Arg(Me2a) = CN(C)C(=N)NCCC[C@H](N)C(=O)O; Lys(Me3) = C[N+](C)(C)CCCC[C@H](N)C(=O)O; Arg(Me2s) = CN=C(NC)NCCC[C@H](N)C(=O)O; pT = C[C@@H](OP(=O)(O)O)[C@H](N)C(=O)O; Lys(Me2) = CN(C)CCCC[C@H](N)C(=O)O; pS = N[C@@H](COP(=O)(O)O)C(=O)O; Lys(Me) = CNCCCC[C@H](N)C(=O)O

Assays:
[1] = target: T1, Bdf1 bromodomain 1 (GST-tagged, WT) (Saccharomyces cerevisiae (strain ATCC …, UniProt P35817)); assay: histone peptide array probed with recombinant GST-bromodomain, signal normalised to myc peptide control
T1 chain: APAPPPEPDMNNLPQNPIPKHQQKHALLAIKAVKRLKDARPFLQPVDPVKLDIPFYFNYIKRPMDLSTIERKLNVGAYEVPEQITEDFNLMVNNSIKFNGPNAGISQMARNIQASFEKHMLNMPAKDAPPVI

[2] = target: T2, Bdf1 bromodomain 2 (GST-tagged, WT) (Saccharomyces cerevisiae (strain ATCC …, UniProt P35817)); assay: as above
T2 chain: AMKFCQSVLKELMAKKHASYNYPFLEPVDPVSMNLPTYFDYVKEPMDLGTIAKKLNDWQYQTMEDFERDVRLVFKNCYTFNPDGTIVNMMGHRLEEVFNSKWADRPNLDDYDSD

binding score [1]	binding score [2]	Binder
0.0102	0.00541	ARTKQTARKSTGGKAPRKQ (A Rme2a T Kme3 Q T A Rme2a K S T G G K A P R K Q)
0.0134	0.00443	ARTKQTARKSTGGKAPRKQ (A Rme2s T Kme1 Q T A Rme2s Kme1 S T G G K A P R K Q)
0.00179	0	ARTKQTARKSTGGKAPRKQ (A R T Kme1 Q T A Rme2a Kme3 S T G G K A P R K Q)
0.00663	0	PDPAK(Ac)SAPAPKK(Ac)G[pS]KKAVT
0.00161	0	A[Arg(Me2a)]T[Lys(Me2)]QTARKSTGGKAPRKQ
0.0142	0.142	PDPAKSAPAPKKG[pS]K(Ac)KAVT
0.00538	0.00895	ARTKQTARKSTGGKAPRKQ (A Rme2s pT Kme3 Q T A R K S T G G K A P R K Q)
0.00699	0.00738	ARTKQTARKSTGGKAPRKQ (A R T Kme1 Q T A Rme2a Kme2 S T G G K A P R K Q)
0	0.000295	ARTKQTARKSTGGKAPRKQ (A Rme2s T Kme1 Q T A R Kme3 S T G G K A P R K Q)
0.00861	0	ARTKQTARKSTGGKAPRKQ (A Rme2s T Kme3 Q T A Rme2s K S T G G K A P R K Q)
0.00269	0.00679	ARTKQTARKSTGGKAPRKQ (A R T K Q T A R Kme2 S T G G K A P R K Q)
0.00502	0	PDPAK(Ac)SAPAPKKGSKKAVT
0	0.00561	ARTKQTARKSTGGKAPRKQ (A R T K Q T A Rme2s Kme3 S pT G G K A P R K Q)
0.00825	0	PDPAKSAPAPKKGSK(Ac)KAVT
0.000717	0	ART[Lys(Me2)]QTA[Arg(Me2a)][Lys(Me)]STGGKAPRKQ
0	0	ARTKQTARKSTGGKAPRKQ (A Rme2a T Kme3 Q T A Rme2a Kme2 S T G G K A P R K Q)
0	0	PRKQLATKAARK(Ac)[pS]APATGG
0.00484	0.0125	[pS]GRGKQGGKARAK(Ac)AKSRSS
0.00448	0	A[Arg(Me2a)]T[Lys(Me)]QTA[Arg(Me2s)][Lys(Me2)]STGGKAPRKQ
0.0043	0	ARTKQTA[Arg(Me2a)]K(Ac)S[pT]GGKAPRKQ
0.0255	0.00915	ARTKQTARKSTGGKAPRKQ (A Rme2a T Kac Q T A R Kme2 S T G G K A P R K Q)
0.0328	0	ARTKQTARKSTGGKAPRKQ (A R T Kac Q T A Rme2a Kme3 S T G G K A P R K Q)
0	0.0393	PRKQLATKAA[Arg(Me2a)]K(Ac)SAPATGG
0.00628	0.00462	ARTKQTARKSTGGKAPRKQ (A Rme2s T Kme1 Q T A Rme2a Kac S T G G K A P R K Q)
0.00412	0	ARTKQTARKSTGGKAPRKQ (A Rme2s T Kac Q T A R Kme3 S T G G K A P R K Q)
0.00341	0.00443	ARTKQTARKSTGGKAPRKQ (A Rme2a T Kme1 Q T A Rme2a K S T G G K A P R K Q)

binding score [1]	binding score [2]	Binder
0.00843	0.081	PRKQLATKAA[Arg(Me2s)]K(Ac)SAPATGG
0	0	ARTKQTARKSTGGKAPRKQ (A R T Kme2 Q T A Rme2a Kme3 S T G G K A P R K Q)
5.8e-17	0	PRKQLATKAA[Arg(Me2s)][Lys(Me3)]SAPATGG
0.0154	0	ARTKQTARKSTGGKAPRKQ (A R T Kme1 Q T A Rme2a Kme1 S T G G K A P R K Q)
0.0332	0.141	SGRGK(Ac)QGGK(Ac)ARAKAKSRSS
0.0163	0	ARTKQTARKSTGGKAPRKQ (A Rme2a T Kme2 Q T A Rme2s Kme1 S T G G K A P R K Q)
0	0	ARTKQTARKSTGGKAPRKQ (A Rme2a T Kme1 Q T A Rme2a Kme1 S T G G K A P R K Q)
0	0	ARTKQTARKSTGGKAPRKQ (A R T K Q T A R Kac pS T G G K A P R K Q)
0.0108	0.0107	ARTKQTARKSTGGKAPRKQ (A Rme2s T Kme2 Q T A Rme2a Kac S T G G K A P R K Q)
0.00628	0.00758	ARTKQTARKSTGGKAPRKQ (A Rme2a T Kme3 Q T A R Kac S T G G K A P R K Q)
0.0167	0	A[Arg(Me2a)]T[Lys(Me2)]QTA[Arg(Me2s)][Lys(Me3)]STGGKAPRKQ
0.0911	0.0627	A[Arg(Me2a)]TK(Ac)QTARK(Ac)STGGKAPRKQ
0.391	0.605	SGRGKGGKGLGKGGAKRHR (S G Rme2s G Kac G G Kac G L G Kac G G A K R H R)
0	0	A[Arg(Me2s)]T[Lys(Me3)]QTA[Arg(Me2a)][Lys(Me)]STGGKAPRKQ
0.0927	0.206	SGRGKGGKGLGKGGAKRHR (pS G Rme2a G Kac G G Kac G L G K G G A K R H R)
0.00126	0	A[Arg(Me2a)]T[Lys(Me2)]QTA[Arg(Me2a)][Lys(Me2)]STGGKAPRKQ
0	0.00876	ARTKQTARKSTGGKAPRKQ (A Rme2s T Kac Q T A Rme2s K S T G G K A P R K Q)
0.00538	0	ARTKQTARKSTGGKAPRKQ (A R T Kme3 Q T A Rme2a Kme3 S T G G K A P R K Q)
0.00305	0	ARTKQTARKSTGGKAPRKQ (A R T K Q T A Rme2s K S T G G K A P R K Q)
0.00412	0.00207	A[Arg(Me2a)][pT]K(Me)QTARKSTGGKAPRKQ
0	0	ARTKQTARKSTGGKAPRKQ (A R T K Q T A R Kme3 pS T G G K A P R K Q)
0	0	ARTKQTARKSTGGKAPRKQ (A R T Kme1 Q T A Rme2s Kme3 S T G G K A P R K Q)
0.0242	0.00148	ARTK(Ac)QTA[Arg(Me2s)][Lys(Me)]STGGKAPRKQ
0	0	PRKQLATKAAR[Lys(Me)]SAPATGG
0	0	PRKQLATKAAR(Me2s″)K[pS]APATGG
